# From patent publication US20230002480A1
# Columns and labels:
# Experiment in all cases: cell-based or functional assay
# [1] = biological target: HIV-1 Env of pseudovirus RHPA4259.7 (HIV-1)
# [2] = biological target: HIV-1 Env of pseudovirus ZM249M.PL1 (HIV-1)
# [3] = biological target: HIV-1 Env of pseudovirus CAAN5342.A2 (HIV-1)
# [4] = biological target: HIV-1 Env of pseudovirus WEAU_d15_410_787 (HIV-1)
# [5] = biological target: HIV-1 Env of pseudovirus CNE52 (HIV-1)
# [6] = biological target: HIV-1 Env of pseudovirus ZM135M.PL10a (HIV-1)
# [7] = biological target: HIV-1 Env of pseudovirus Q259.d2.17 (HIV-1)
# [8] = biological target: HIV-1 Env of pseudovirus Ce2010_F5 (HIV-1)
# [9] = biological target: HIV-1 Env of pseudovirus 1006_11_C3_1601 (HIV-1)
# [10] = biological target: HIV-1 Env of pseudovirus CAP210.2.00.E8 (HIV-1)
# [11] = biological target: HIV-1 Env of pseudovirus CNE21 (HIV-1)
# [12] = biological target: HIV-1 Env of pseudovirus AC10.0.29 (HIV-1)
# [13] = biological target: HIV-1 Env of pseudovirus 6244_13_B5_4576 (HIV-1)
# [14] = biological target: HIV-1 Env of pseudovirus WITO4160.33 (HIV-1)
# [15] = biological target: HIV-1 Env of pseudovirus THRO4156.18 (HIV-1)
# [16] = biological target: HIV-1 Env of pseudovirus MS208.A1 (HIV-1)
# [17] = biological target: HIV-1 Env of pseudovirus Ce703010054_2A2 (HIV-1)
# [18] = biological target: HIV-1 Env of pseudovirus Ce1172_H1 (HIV-1)
# [19] = biological target: HIV-1 Env of pseudovirus BF1266.431a (HIV-1)
# [20] = biological target: HIV-1 Env of pseudovirus CNE19 (HIV-1)
# [21] = biological target: HIV-1 Env of pseudovirus HIV-16845-2.22 (HIV-1)
# [22] = biological target: HIV-1 Env of pseudovirus 7030102001E5(Rev-) (HIV-1)
# [23] = biological target: HIV-1 Env of pseudovirus REJO4541.67 (HIV-1)
# [24] = biological target: HIV-1 Env of pseudovirus 246F C1G (HIV-1)
substance,measurement,setting,value
PG9 (antibody),"IC50, titer in TZM.bl cells",[1],22.6 µg/mL
same,"IC80, titer in TZM.bl cells",[1],> 50 µg/mL
same,"IC50, titer in TZM.bl cells",[2],0.166 µg/mL
same,"IC80, titer in TZM.bl cells",[2],1.41 µg/mL
same,"IC50, titer in TZM.bl cells",[3],4.6 µg/mL
same,"IC80, titer in TZM.bl cells",[3],27 µg/mL
same,"IC50, titer in TZM.bl cells",[4],4.08 µg/mL
same,"IC80, titer in TZM.bl cells",[4],> 50 µg/mL
same,"IC50, titer in TZM.bl cells",[5],0.029 µg/mL
same,"IC80, titer in TZM.bl cells",[5],0.081 µg/mL
same,"IC50, titer in TZM.bl cells",[6],20.6 µg/mL
same,"IC80, titer in TZM.bl cells",[6],> 50 µg/mL
same,"IC50, titer in TZM.bl cells",[7],0.029 µg/mL
same,"IC80, titer in TZM.bl cells",[7],1.38 µg/mL
same,"IC50, titer in TZM.bl cells",[8],> 50 µg/mL
same,"IC80, titer in TZM.bl cells",[8],> 50 µg/mL
same,"IC50, titer in TZM.bl cells",[9],0.366 µg/mL
same,"IC80, titer in TZM.bl cells",[9],1.91 µg/mL
same,"IC50, titer in TZM.bl cells",[10],0.04 µg/mL
same,"IC80, titer in TZM.bl cells",[10],0.173 µg/mL
same,"IC50, titer in TZM.bl cells",[11],0.038 µg/mL
same,"IC80, titer in TZM.bl cells",[11],0.094 µg/mL
same,"IC50, titer in TZM.bl cells",[12],0.117 µg/mL
same,"IC80, titer in TZM.bl cells",[12],0.845 µg/mL
same,"IC50, titer in TZM.bl cells",[13],> 50 µg/mL
same,"IC80, titer in TZM.bl cells",[13],> 50 µg/mL
same,"IC50, titer in TZM.bl cells",[14],0.01 µg/mL
same,"IC80, titer in TZM.bl cells",[14],0.037 µg/mL
same,"IC50, titer in TZM.bl cells",[15],24.5 µg/mL
same,"IC80, titer in TZM.bl cells",[15],> 50 µg/mL
same,"IC50, titer in TZM.bl cells",[16],5 ng/mL
same,"IC80, titer in TZM.bl cells",[16],0.014 µg/mL
same,"IC50, titer in TZM.bl cells",[17],0.022 µg/mL
same,"IC80, titer in TZM.bl cells",[17],0.103 µg/mL
same,"IC50, titer in TZM.bl cells",[18],0.07 µg/mL
same,"IC80, titer in TZM.bl cells",[18],0.206 µg/mL
same,"IC50, titer in TZM.bl cells",[19],0.026 µg/mL
same,"IC80, titer in TZM.bl cells",[19],0.088 µg/mL
same,"IC50, titer in TZM.bl cells",[20],0.024 µg/mL
same,"IC80, titer in TZM.bl cells",[20],0.146 µg/mL
same,"IC50, titer in TZM.bl cells",[21],4.4 µg/mL
same,"IC80, titer in TZM.bl cells",[21],> 50 µg/mL
same,"IC50, titer in TZM.bl cells",[22],> 50000 ng/mL
same,"IC80, titer in TZM.bl cells",[22],> 50 µg/mL
same,"IC50, titer in TZM.bl cells",[23],0.012 µg/mL
same,"IC80, titer in TZM.bl cells",[23],0.163 µg/mL
same,"IC50, titer in TZM.bl cells",[24],> 50 µg/mL
same,"IC80, titer in TZM.bl cells",[24],> 50 µg/mL
10-1074 (antibody),"IC50, titer in TZM.bl cells",[1],0.021 µg/mL
same,"IC80, titer in TZM.bl cells",[1],0.118 µg/mL
same,"IC50, titer in TZM.bl cells",[2],> 50 µg/mL
same,"IC80, titer in TZM.bl cells",[2],> 50 µg/mL
same,"IC50, titer in TZM.bl cells",[3],0.007 µg/mL
same,"IC80, titer in TZM.bl cells",[3],0.036 µg/mL
same,"IC50, titer in TZM.bl cells",[4],0.104 µg/mL
same,"IC80, titer in TZM.bl cells",[4],0.375 µg/mL
same,"IC50, titer in TZM.bl cells",[5],1.23 µg/mL
same,"IC80, titer in TZM.bl cells",[5],13.1 µg/mL
same,"IC50, titer in TZM.bl cells",[6],0.069 µg/mL
same,"IC80, titer in TZM.bl cells",[6],0.367 µg/mL
same,"IC50, titer in TZM.bl cells",[7],> 50 µg/mL
same,"IC80, titer in TZM.bl cells",[7],> 50 µg/mL
same,"IC50, titer in TZM.bl cells",[8],> 50 µg/mL
same,"IC80, titer in TZM.bl cells",[8],> 50 µg/mL
same,"IC50, titer in TZM.bl cells",[9],0.003 µg/mL
same,"IC80, titer in TZM.bl cells",[9],0.013 µg/mL
same,"IC50, titer in TZM.bl cells",[10],> 50 µg/mL
same,"IC80, titer in TZM.bl cells",[10],> 50 µg/mL
same,"IC50, titer in TZM.bl cells",[11],0.067 µg/mL
same,"IC80, titer in TZM.bl cells",[11],0.181 µg/mL
same,"IC50, titer in TZM.bl cells",[12],0.022 µg/mL
same,"IC80, titer in TZM.bl cells",[12],0.11 µg/mL
same,"IC50, titer in TZM.bl cells",[13],0.202 µg/mL
same,"IC80, titer in TZM.bl cells",[13],0.922 µg/mL
same,"IC50, titer in TZM.bl cells",[14],0.185 µg/mL
same,"IC80, titer in TZM.bl cells",[14],2.11 µg/mL
same,"IC50, titer in TZM.bl cells",[15],> 50 µg/mL
same,"IC80, titer in TZM.bl cells",[15],> 50 µg/mL
same,"IC50, titer in TZM.bl cells",[16],> 50000 ng/mL
same,"IC80, titer in TZM.bl cells",[16],> 50 µg/mL
same,"IC50, titer in TZM.bl cells",[17],> 50 µg/mL
same,"IC80, titer in TZM.bl cells",[17],> 50 µg/mL
same,"IC50, titer in TZM.bl cells",[18],0.047 µg/mL
same,"IC80, titer in TZM.bl cells",[18],0.166 µg/mL
same,"IC50, titer in TZM.bl cells",[19],> 50 µg/mL
same,"IC80, titer in TZM.bl cells",[19],> 50 µg/mL
same,"IC50, titer in TZM.bl cells",[20],50 µg/mL
same,"IC80, titer in TZM.bl cells",[20],> 50 µg/mL
same,"IC50, titer in TZM.bl cells",[21],1.17 µg/mL
same,"IC80, titer in TZM.bl cells",[21],5.83 µg/mL
same,"IC50, titer in TZM.bl cells",[22],6 ng/mL
same,"IC80, titer in TZM.bl cells",[22],0.021 µg/mL
same,"IC50, titer in TZM.bl cells",[23],> 50 µg/mL
same,"IC80, titer in TZM.bl cells",[23],> 50 µg/mL
same,"IC50, titer in TZM.bl cells",[24],0.022 µg/mL
same,"IC80, titer in TZM.bl cells",[24],0.111 µg/mL
